In patent US20130089893A1 (TRILLIUM THERAPEUTICS, published 2013):

What was measured:
[1] = biological target: ovalbumin-anti-ovalbumin immune complexes (OVA ICs); experiment: cell-based or functional assay
[2] = biological target: heat-aggregated IgG (HAGG); experiment: cell-based or functional assay

Row | Binder | IC50, TNF-α release from MC/9 cells induced by OVA ICs [1] [µg/mL] | fold potency against rsFcγRIIa monomer, MC/9 TNF-α release [1] [fold] | fold potency against BIF and M2, loss of CD62L on human neutrophils induced by OVA ICs [1] [fold] | fold potency against Fc-tagged monomer (M2), MC/9 TNF-α release [1] [fold] | fold potency against the non-Fc tagged dimer, MC/9 TNF-α release [1] [fold] | fold potency against BIF and M2, HAGG-induced platelet activation (CD41 and CD62P positive) [2] [fold]
1 | recombinant soluble FcγRIIa dimer (rsFcγRIIa dimer), head to tail homodimer construct of FIG. 1 (receptor) QAAAPPKAVLKLEPPWINVLQEDSVTLTCQGARSPESDSIQWFHNGNLIPTHTQPSYRFKANNNDSGEYTCQTGQTSLSDPVHLTVLSEWLVLQTPHLEFQEGETIMLRCHSWKDKPLVKVTFFQNGKSQKFSHLDPTFSIPQANHSHSGDYHCTGNIGYTLFSSKPVTITVQVPSMGSSSPVAPPKAVLKLEPPWINVLQEDSVTLTCQGARSPESDSIQWFHNGNLIPTHTQPSYRFKANNNDSGEYTCQTGQTSLSDPVHLTVLSEWLVLQTPHLEFQEGETIMLRCHSWKDKPLVKVTFFQNGKSQKFSHLDPTFSIPQANHSHSGDYHCTGNIGYTLFSSKPVTITVQVPSMGSSSPHHHHHH | 2.1 | 8 |  |  |  | 
2 | recombinant soluble D2FcγRIIaFc (D2) protein (Fc fusion) QAAAPPKAVLKLEPPWINVLQEDSVTLTCQGARSPESDSIQWFHNGNLIPTHTQPSYRFKANNNDSGEYTCQTGQTSLSDPVHLTVLSEWLVLQTPHLEFQEGETIMLRCHSWKDKPLVKVTFFQNGKSQKFSHLDPTFSIPQANHSHSGDYHCTGNIGYTLFSSKPVTITVQVPSMGSSSPVAPPKAVLKLEPPWINVLQEDSVTLTCQGARSPESDSIQWFHNGNLIPTHTQPSYRFKANNNDSGEYTCQTGQTSLSDPVHLTVLSEWLVLQTPHLEFQEGETIMLRCHSWKDKPLVKVTFFQNGKSQKFSHLDPTFSIPQANHSHSGDYHCTGNIGYTLFSSKPVTITVQVPSMGSSSPPRGPTIKPCPPCKCPAPNLEGGPSVFIFPPKIKDVLMISLSPIVTCVVVDVSEDDPDVQISWFVNNVEVHTAQTQTHREDYNSTLRVVSALPIQHQDWMSGKAFACAVNNKDLPAPIERTISKPKGSVRAPQVYVLPPPEEEMTKKQVTLTCMVTDFMPEDIYVEWTNNGKTELNYKNTEPVLDSDGSYFMYSKLRVEKKNWVERNSYSCSVVHEGLHNHHTTKSFSRTPGK |  |  | ~6 | 12 | 3 | ~3
